{
  "source": "the supplement of paper PMC12042874",
  "note": "± gives the uncertainty stated by the source.",
  "data": [
    {"assay": "amyloid nucleation score (Sup35N fusion, yeast selection) (log enrichment); library NNK3; higher = more nucleation; inactive = no reads after selection", "in_short": "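Peptides of 20 random codons, each fused to Sup35N, were expressed in psi-negative yeast. Cells were induced with 100 μM copper sulfate for 24 hours and grown 7 days at 30°C on medium lacking adenine and uracil, and plasmid inserts before and after selection were Illumina-sequenced. Nucleation scores are DiMSum log enrichments of output over input reads, centred on the mode score of non-aggregating sequences, and sequences under 100 input reads were excluded.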", "values": [
      {"substance": "VHELIDHKMKMIGLVFGLSI", "amyloid nucleation score": "inactive"},
      {"substance": "VHIYSCYTRALDGNGAHSNN", "amyloid nucleation score": "inactive"},
      {"substance": "VHLNCCTVLKEVRLFT", "amyloid nucleation score": "0.78 ± 0.26"},
      {"substance": "VHTYLSAEWLVFPRHFAVYK", "amyloid nucleation score": "inactive"},
      {"substance": "VIARDDINCVRDGGQGLQIS", "amyloid nucleation score": "inactive"},
      {"substance": "VICFFTTNAEHLQFLV", "amyloid nucleation score": "inactive"},
      {"substance": "VIFTIHNGT", "amyloid nucleation score": "inactive"},
      {"substance": "VIFVGFWQWYSYISELDCNP", "amyloid nucleation score": "inactive"},
      {"substance": "VIGGVEREQQDRLKL", "amyloid nucleation score": "inactive"},
      {"substance": "VIKSIWQSYGRKRSYLDMSI", "amyloid nucleation score": "inactive"},
      {"substance": "VILMEDKSLMSWTRTIIVSM", "amyloid nucleation score": "inactive"},
      {"substance": "VILNCR", "amyloid nucleation score": "inactive"},
      {"substance": "VINKRRWTSNGNCILEVRHG", "amyloid nucleation score": "inactive"},
      {"substance": "VKAVLY", "amyloid nucleation score": "inactive"},
      {"substance": "VKFVCKAELLDLT", "amyloid nucleation score": "inactive"},
      {"substance": "VKIFS", "amyloid nucleation score": "inactive"},
      {"substance": "VKLFKVPLVLSMRL", "amyloid nucleation score": "inactive"},
      {"substance": "VKNFLGY", "amyloid nucleation score": "inactive"},
      {"substance": "VKSFFSKGSCDNDTNINRRS", "amyloid nucleation score": "inactive"},
      {"substance": "VKTRTIRVSH", "amyloid nucleation score": "inactive"},
      {"substance": "VKVFFPIVRCDTYHIYKQWG", "amyloid nucleation score": "2.51 ± 0.053"},
      {"substance": "VLACSHWLMLSRTKYMMRIV", "amyloid nucleation score": "inactive"},
      {"substance": "VLANGKTSELRELKVHLLAG", "amyloid nucleation score": "-0.274 ± 1.1"},
      {"substance": "VLCCLDYIYPVGALGYYACI", "amyloid nucleation score": "inactive"},
      {"substance": "VLDFRRPRNISRS", "amyloid nucleation score": "inactive"},
      {"substance": "VLDLCDVY", "amyloid nucleation score": "inactive"},
      {"substance": "VLEYHTQPWGLAQRQTWLSG", "amyloid nucleation score": "inactive"},
      {"substance": "VLFINACYPLIISYQ", "amyloid nucleation score": "1.97 ± 0.066"},
      {"substance": "VLFSGFFYLSDNYKLMGFVH", "amyloid nucleation score": "inactive"},
      {"substance": "VLGSRVKGDYCRCLEMECIW", "amyloid nucleation score": "inactive"},
      {"substance": "VLGVVT", "amyloid nucleation score": "inactive"},
      {"substance": "VLISVLSRLRCMSGGLYTPN", "amyloid nucleation score": "inactive"},
      {"substance": "VLIYDVCCALNLCCGFRTFG", "amyloid nucleation score": "1.77 ± 0.081"},
      {"substance": "VLLARIDAVFITVLR", "amyloid nucleation score": "1.25 ± 0.12"},
      {"substance": "VLLFC", "amyloid nucleation score": "inactive"},
      {"substance": "VLLFLTFMYSLSFWSMLLRG", "amyloid nucleation score": "inactive"},
      {"substance": "VLLSNNRILYETFL", "amyloid nucleation score": "inactive"},
      {"substance": "VLLSRMIYALPGYSVL", "amyloid nucleation score": "1.93 ± 0.075"},
      {"substance": "VLLTVECLFYSS", "amyloid nucleation score": "inactive"},
      {"substance": "VLLYDECMMFVNSLMFTNSE", "amyloid nucleation score": "-0.501 ± 0.66"},
      {"substance": "VLNDFMCDFGSWPRVIVIRT", "amyloid nucleation score": "inactive"},
      {"substance": "VLRQDISDDQSEAPEMNPHR", "amyloid nucleation score": "inactive"},
      {"substance": "VLRSAYAALFLNRFSRFDCR", "amyloid nucleation score": "inactive"},
      {"substance": "VLRSNKYRITMGMGKKFPAL", "amyloid nucleation score": "inactive"},
      {"substance": "VLSVSLNACTIGWST", "amyloid nucleation score": "1.34 ± 0.1"},
      {"substance": "VLSVWDHLYLRNSSCAPTYR", "amyloid nucleation score": "-0.641 ± 1.4"},
      {"substance": "VLVICWFRDDGYSVFLCCQT", "amyloid nucleation score": "inactive"},
      {"substance": "VLVNGSGRNWEYYISRRFFF", "amyloid nucleation score": "inactive"},
      {"substance": "VLVVLDVRRGTDLCTF", "amyloid nucleation score": "inactive"},
      {"substance": "VLVVPKQVTWEVGF", "amyloid nucleation score": "inactive"},
      {"substance": "VMCLVSRPPQWSVLDVSTIM", "amyloid nucleation score": "inactive"},
      {"substance": "VMCMCCISVHSTLMFLDITN", "amyloid nucleation score": "2.85 ± 0.063"},
      {"substance": "VMDVEIGSASSLYKRTSTSE", "amyloid nucleation score": "inactive"},
      {"substance": "VMIKSC", "amyloid nucleation score": "inactive"},
      {"substance": "VMRALL", "amyloid nucleation score": "inactive"},
      {"substance": "VMRGASYFPTELADDDLMPG", "amyloid nucleation score": "inactive"},
      {"substance": "VMRLHRCKELVCDSIYTLRG", "amyloid nucleation score": "inactive"},
      {"substance": "VMVSYG", "amyloid nucleation score": "inactive"}
    ]}
  ]
}
